Measured values from patent publication US20200093883A1 (XIGEN INFLAMMATION, published 2020).
Square brackets hold non-standard residues; d marks the D form. Ends that are not written are not given here.

Target: c-Jun N-terminal kinase (JNK) in primary mouse cortical neurons (mouse)
Test: cell-based or functional assay

B1: JNK inhibitor according to SEQ ID NO: 172 ("XG-104") (peptide)
peptide: [dR]KKR[dR]QRR[dR]RP[dK]RP[dA]TLNL[dF]-NH2
modifications: N-terminus assumed
SMILES: CC(C)C[C@H](NC(=O)[C@H](CC(N)=O)NC(=O)[C@H](CC(C)C)NC(=O)[C@@H](NC(=O)[C@@H](C)NC(=O)[C@@H]1CCCN1C(=O)[C@H](CCCNC(=N)N)NC(=O)[C@@H](CCCCN)NC(=O)[C@@H]1CCCN1C(=O)[C@H](CCCNC(=N)N)NC(=O)[C@@H](CCCNC(=N)N)NC(=O)[C@H](CCCNC(=N)N)NC(=O)[C@H](CCCNC(=N)N)NC(=O)[C@H](CCC(N)=O)NC(=O)[C@@H](CCCNC(=N)N)NC(=O)[C@H](CCCNC(=N)N)NC(=O)[C@H](CCCCN)NC(=O)[C@H](CCCCN)NC(=O)[C@H](N)CCCNC(=N)N)[C@@H](C)O)C(=O)N[C@H](Cc1ccccc1)C(N)=O
For B1, the “JNK activity (ratio pJNK/JNK, immunoblot), neurons exposed to 2 µM Aβ42, pre-treatment with 5 µM XG-104: decrease” value was 29.2%, the “JNK activity (ratio pJNK/JNK, immunoblot), neurons exposed to 2 µM Aβ42, pre-treatment with 10 µM XG-104: decrease” value was 60% and the “JNK activity (ratio pJNK/JNK, immunoblot), neurons exposed to 25 µM Aβ42, pre-treatment with 5 µM XG-104: decrease” value was 17.5%. The “JNK activity (ratio pJNK/JNK, immunoblot), neurons exposed to 25 µM Aβ42, pre-treatment with 10 µM XG-104: decrease” value was 59.6%.
